According to patent US20220064329A1 (Novo Nordisk, published 2022):

What was measured:
FVII(a) WT = biological target: T1, FVII(a) WT (human, UniProt P08709 61-466); assay: SPR, Biacore T200, 25 C; FVII(a) captured on anti-Gla Ab 4F6, mAb0842(OA) injected
T1 construct: also called wild type human FVII(a)
T1 sequence: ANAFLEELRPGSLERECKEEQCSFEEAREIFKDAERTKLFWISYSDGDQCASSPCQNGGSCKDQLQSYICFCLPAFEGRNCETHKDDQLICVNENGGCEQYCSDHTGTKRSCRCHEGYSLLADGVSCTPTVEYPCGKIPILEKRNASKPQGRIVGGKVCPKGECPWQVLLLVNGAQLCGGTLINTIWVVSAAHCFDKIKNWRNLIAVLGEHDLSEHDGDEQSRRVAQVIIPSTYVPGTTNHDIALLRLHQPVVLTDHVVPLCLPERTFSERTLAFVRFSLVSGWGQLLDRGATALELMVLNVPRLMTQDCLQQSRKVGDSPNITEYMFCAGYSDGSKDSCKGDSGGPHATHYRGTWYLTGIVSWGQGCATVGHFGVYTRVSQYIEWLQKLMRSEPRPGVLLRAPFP
Method: The running buffer was prepared by diluting 10-fold the 10×HBS-P buffer (supplied by GE Healthcare) and supplemented with 1 mg/ml BSA and 5 mM CaCl2 to give 10 mM HEPES, 150 mM NaCl, 0.05% v/v Polysorbate 20, pH 7.4, 5 mM CaCl2, 1 mg/ml bovine serum albumin (BSA). […] Regeneration of the chip was achieved using 10 mM HEPES, 150 mM NaCl, 20 mM EDTA, 0.05 v/v Polysorbate 20, pH 7.4. Binding data were analysed according to a 1:1 Kinetic model and steady state analysis using BiaEvaluation 4.1 supplied by the manufacturer (Biacore AB, Uppsala, Sweden). Wherever possible, ka, kd and KD values from 1:1 kinetic fitting model are reported. […] An amino acid residue is considered a hot-spot residue if substitution of that amino acid residue with alanine results in an affinity reduction of ten (10) fold or more relative to the wild type.

FVII(a) variant Y118A = biological target: T2, FVII(a) variant Y118A (human, UniProt P08709 61-466); assay: SPR, Biacore T200, 25 C; FVII(a) variant captured on anti-Gla Ab 4F6, mAb0842(OA) injected
T2 construct: hFVII alanine variant in cell culture supernatant
T2 sequence: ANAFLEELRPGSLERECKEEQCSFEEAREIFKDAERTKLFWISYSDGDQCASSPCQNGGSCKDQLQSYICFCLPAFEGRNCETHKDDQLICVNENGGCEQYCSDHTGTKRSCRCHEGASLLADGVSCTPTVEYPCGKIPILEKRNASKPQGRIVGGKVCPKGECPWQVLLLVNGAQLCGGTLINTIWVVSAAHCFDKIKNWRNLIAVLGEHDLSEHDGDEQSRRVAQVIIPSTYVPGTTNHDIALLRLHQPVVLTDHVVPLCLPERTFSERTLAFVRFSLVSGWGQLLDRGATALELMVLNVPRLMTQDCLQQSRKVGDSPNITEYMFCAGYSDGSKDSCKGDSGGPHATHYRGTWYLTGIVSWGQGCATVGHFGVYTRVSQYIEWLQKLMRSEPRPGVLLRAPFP

B1: mAb0842(OA) (antibody, human IgG4 S228P, kappa)
heavy: QVQLQESGPGLVKPSQTLSLTCTVSGYSISSDSAWSWIRQPPGKGLEWIGYIQYSGSTNYNPSLKSRVTISRDTSKNQFSLKLSSVTAADTAVYYCARSVNYYGNSFAVGYWGQGTLVTVSSASTKGPSVFPLAPCSRSTSESTAALGCLVKDYFPEPVTVSWNSGALTSGVHTFPAVLQSSGLYSLSSVVTVPSSSLGTKTYTCNVDHKPSNTKVDKRVESKYGPPCPPCPAPEFLGGPSVFLFPPKPKDTLMISRTPEVTCVVVDVSQEDPEVQFNWYVDGVEVHNAKTKPREEQFNSTYRVVSVLTVLHQDWLNGKEYKCKVSNKGLPSSIEKTISKAKGQPREPQVYTLPPSQEEMTKNQVSLSCAVKGFYPSDIAVEWESNGQPENNYKTTPPVLDSDGSFFLVSRLTVDKSRWQEGNVFSCSVMHEALHNHYTQKSLSLSLGK
light: EIVLTQSPATLSLSPGERATLSCRASQGISDYLHWYQQKPGEAPRLLIKYTSQPATGIPARFSGSGSGTDFTLTISSLEPEDFAVYYCQNGHSFPLTFGQGTKLEIKRTVAAPSVFIFPPSDEQLKSGTASVVCLLNNFYPREAKVQWKVDNALQSGNSQESVTEQDSKDSTYSLSSTLTLSKADYEKHKVYACEVTHQGLSSPVTKSFNRGEC
chain: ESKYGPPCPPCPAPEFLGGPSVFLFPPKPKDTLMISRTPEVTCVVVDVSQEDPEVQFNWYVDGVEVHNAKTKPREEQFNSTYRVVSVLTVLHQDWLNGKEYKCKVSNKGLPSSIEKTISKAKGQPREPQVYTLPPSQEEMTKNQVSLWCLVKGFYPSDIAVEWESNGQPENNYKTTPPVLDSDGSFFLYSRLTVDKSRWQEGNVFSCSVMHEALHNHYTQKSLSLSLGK
notes: also called monovalent humanized 11F2 antibody; one-armed anti-FVII(a) antibody
Kd (FVII(a) WT): 0.31 nM
Kd (FVII(a) variant Y118A): 1.48 nM
